Results on five molecules are retold here after patent publication US20190016813A1 (APROGEN KIC, published 2019).

Assay [1] concerns the target T1, human CD43 (JL-1 antigen) on cells (human, UniProt P16150 20-400).
T1 construct: also called leukosialin; sialophorin
T1 sequence: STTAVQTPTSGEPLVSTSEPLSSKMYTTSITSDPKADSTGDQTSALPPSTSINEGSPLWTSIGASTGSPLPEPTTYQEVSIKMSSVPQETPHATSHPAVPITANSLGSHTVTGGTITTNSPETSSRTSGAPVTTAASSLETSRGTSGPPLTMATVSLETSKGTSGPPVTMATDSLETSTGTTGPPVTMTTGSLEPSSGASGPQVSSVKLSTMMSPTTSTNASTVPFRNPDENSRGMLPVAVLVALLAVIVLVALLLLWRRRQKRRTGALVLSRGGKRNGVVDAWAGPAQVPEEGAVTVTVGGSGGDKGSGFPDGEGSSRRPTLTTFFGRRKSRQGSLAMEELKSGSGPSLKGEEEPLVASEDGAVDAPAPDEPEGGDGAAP
The assay can be described thus: staining of CEM7 cells, fluorescence intensity (FIG. 34).

The target in assay [2] is T1, human CD43 (JL-1 antigen) on cells. The assay can be described thus: binding to CD43 positive CEM7 cells (FIG. 45).
For assay [3] the target is unchanged. The assay can be described thus: immunofluorescence on Molt-4 cells, antibody 50 ug/ml, no human serum.

B1: humanized anti-CD43 antibody 257-10 (antibody, IgG1, V domains shown)
VH: QVQLVQSGAEVKKPGASVKVSCKASGYTFNGYFMNWVRQAPGQGLRWMGRINPNNGDSFYNQKFQGRVTMTRDTSTSTVYMEPSSLRSEDTAVYYCAREGYYGGRGYALDYWGQGTLVTVSS
VL: DTQMTQSPSSVSASVGDRVTITCRTSQDISNYLNWYQQKPGKAPKLLIYNTSRLHSGVPSRFSGSGSGTDFTLTISSLQPEDFATYYCQQSNMFPYTFGQGTKLEIKR
modifications: glycosylated in the light chain variable region (N50-T-S52 motif; Concanavalin A blot)
As for B1, in assay [1], the binding result is given as “binds”.

B2: modified humanized anti-CD43 antibody, light chain N50Q (antibody, V domains shown)
VH: QVQLVQSGAEVKKPGASVKVSCKASGYTFNGYFMNWVRQAPGQGLRWMGRINPNNGDSFYNQKFQGRVTMTRDTSTSTVYMEPSSLRSEDTAVYYCAREGYYGGRGYALDYWGQGTLVTVSS
VL: DTQMTQSPSSVSASVGDRVTITCRTSQDISNYLNWYQQKPGKAPKLLIYQTSRLHSGVPSRFSGSGSGTDFTLTISSLQPEDFATYYCQQSNMFPYTFGQGTKLEIK
As for B2, the binding result in assay [2] was “binds”.

B3: humanized anti-CD43 antibody 456-D10 (antibody, V domains shown)
VH: QVQLVQSGAEVKKPGASVKVSCKASGYTFNGYFMNWVRQAPGQGLERMGRINPNNGDSFYNQKFQGRVTMTRDTSTSTVYMELPSLRSEDTAVYYCAREGYYGGRGYALDYWGQGTLVTVSS
VL: DTQMTQSPSSVSASVGDRVTITCRTSQDISNYLNWYQQEPGKAPKLLIYNTSRLHSGVPSRFSGSGSGTDFTLTISSLQPEDFATYYCQQSNMFPYTFGQGTKLEIKR
notes: tested as humanized IgG
For B3, the binding result in assay [1] is “binds”.

B4: modified humanized anti-CD43 antibody, light chain N50A (antibody, V domains shown)
VH: QVQLVQSGAEVKKPGASVKVSCKASGYTFNGYFMNWVRQAPGQGLRWMGRINPNNGDSFYNQKFQGRVTMTRDTSTSTVYMEPSSLRSEDTAVYYCAREGYYGGRGYALDYWGQGTLVTVSS
VL: DTQMTQSPSSVSASVGDRVTITCRTSQDISNYLNWYQQKPGKAPKLLIYATSRLHSGVPSRFSGSGSGTDFTLTISSLQPEDFATYYCQQSNMFPYTFGQGTKLEIK
notes: also called modified humanized antibody removing glycosylation
For B4, the binding result in assay [2] is listed as “binds”.

B5: mouse anti-CD43 monoclonal antibody (ART140 JL1) (antibody, human IgG1, kappa, V domains shown)
VH: EVQLQQSGPELVKPGASVKISCKASGYSIGGYFMNWVKQSHGKSPEWIGRINPNNGDSFYNQKFKGTATLTVDRSSDTVHMEVLSLTSEDSAVYYCGREGYYGGRGYALDYWGQGTSVTVSS
VL: DIQMTQTTSSLSASLGDRVTISCRTSQDISNYLNWYQQKPDGTVKLLIYNTSRLHSGVPSRFSGSGSGTDYSLTIRNLEQKDIATYFCQQSNMFPYTFGGGTKLEIKR
notes: also called mouse anti-JL-1 antibody; mJL-1
In the case of B5, in assay [3], the binding result is recorded as “binds”.
